Source: paper PMC10163214, “E. coli allantoinase is activated by the downstream metabolic enzyme, glycerate kinase, and stabilizes the putative allantoin transporter by direct binding” (Scientific Reports, 2023)

Key:
AllW (YbbW) = target: T1, AllW (YbbW) (Escherichia coli, UniProt P75712); test: cellular allantoin uptake by GC-MS; assay type: cell-based; details: 1 mM allantoin, PBS with glucose, delta-allC cells; uptake lost in allW or allB deletion
T1 construct: native chromosomal AllW in delta-allC cells, stabilised by AllB; compared with allW and allB deletion strains; with Allantoinase
T1 sequence (P75712 whole entry): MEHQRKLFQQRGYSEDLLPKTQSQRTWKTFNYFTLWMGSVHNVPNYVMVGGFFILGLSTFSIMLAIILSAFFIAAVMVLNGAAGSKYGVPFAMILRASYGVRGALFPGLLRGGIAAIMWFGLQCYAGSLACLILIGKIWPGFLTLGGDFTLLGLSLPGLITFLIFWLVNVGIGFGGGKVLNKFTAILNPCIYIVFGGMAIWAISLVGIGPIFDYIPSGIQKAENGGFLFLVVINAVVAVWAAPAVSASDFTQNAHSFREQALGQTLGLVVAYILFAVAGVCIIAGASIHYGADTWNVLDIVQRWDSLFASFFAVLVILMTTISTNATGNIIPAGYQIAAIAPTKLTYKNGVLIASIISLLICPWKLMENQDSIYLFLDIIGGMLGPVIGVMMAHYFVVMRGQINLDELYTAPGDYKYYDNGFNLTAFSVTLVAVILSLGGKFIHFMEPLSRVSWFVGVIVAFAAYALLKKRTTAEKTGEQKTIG

[1] = target: T2, AllB (allantoinase; AllB_Zn, AllB_Mn) (Escherichia coli, UniProt P77671); test: absorbance of allantoate at […] nm; assay type: biochemical; details: 0.1 mM ZnSO4, no GlxK, no glyoxylate, pH 8.0
T2 construct: full length; expressed in E. coli; tetrameric
T2 sequence (P77671 1-453): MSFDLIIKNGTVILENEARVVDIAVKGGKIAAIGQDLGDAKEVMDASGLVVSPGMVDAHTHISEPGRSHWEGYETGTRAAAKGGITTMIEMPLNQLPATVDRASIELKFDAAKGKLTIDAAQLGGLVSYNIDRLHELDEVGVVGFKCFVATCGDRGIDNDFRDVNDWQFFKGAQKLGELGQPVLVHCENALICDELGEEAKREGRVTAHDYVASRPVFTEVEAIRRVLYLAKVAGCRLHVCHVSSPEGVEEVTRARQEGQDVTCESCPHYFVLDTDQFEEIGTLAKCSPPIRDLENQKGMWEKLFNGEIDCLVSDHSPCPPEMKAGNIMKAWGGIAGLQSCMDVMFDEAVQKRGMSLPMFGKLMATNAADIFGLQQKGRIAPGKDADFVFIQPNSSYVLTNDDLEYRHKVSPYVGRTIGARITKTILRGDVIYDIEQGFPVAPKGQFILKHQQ

purified protein [2] = substrate: O=C(O)[C@H](O)CO; test: purified protein; assay type: biochemical, Escherichia coli; details: 10 mM MgSO4, 1.2 mM ATP, pH 7.4, 37 °C
purified protein [3] = substrate: NC(=O)NC1NC(=O)NC1=O; test: purified protein; assay type: biochemical, Escherichia coli; details: AllB_Mn, 0.2 mM MnSO4, no GlxK, 0.9 mM glyoxylate present, pH 8.0, 37 °C

With NC(=O)NC1NC(=O)NC1=O (stereo not drawn) [allantoin] the “cellular allantoin uptake by GC-MS” value (AllW (YbbW)) was “no allantoin uptake was detected in either the AW12 (ΔallC–ΔallB) or the AW13 (ΔallC–ΔallW) mutant” and the Km [1] was greater than 15 mM.

B1: GlxK (glycerate 2-kinase) (Escherichia coli K-12) (protein)
chain: MKIVIAPDSFKESLSAEKCCQAIKAGFSTLFPDANYICLPIADGGEGTVDAMVAATGGNIVTLEVCGPMGEKVNAFYGLTGDGKTAVIEMAAASGLMLVAPEKRNPLLASSFGTGELIRHALDNDIRHIILGIGGSATVDGGMGMAQALGVRFLDADGQALAANGGNLARVASIEMDECDPRLANCHIEVACDVDNPLVGARGAAAVFGPQKGATPEMVEELEQGLQNYARVLQQQTEINVCQMAGGGAAGGMGIAAAVFLNADIKPGIEIVLNAVNLAQAVQGAALVITGEGRIDSQTAGGKAPLGVASVAKQFNVPVIGIAGVLGDGVEVVHQYGIDAVFSILPRLAPLAEVLASGETNLFNSARNIACAIKIGQGIKN
notes: full length, N-terminal His6 tag, expressed in E. coli; GlxK-His 41 kDa
B1 was tested, and the Km (purified protein [2]) was 0.085 ± 0.009 mM and the Vmax (purified protein [2]) was 4.6 ± 0.3 U/mg protein.

B2: AllB (allantoinase; AllB_Zn, AllB_Mn) (Escherichia coli K-12) (protein)
chain: MSFDLIIKNGTVILENEARVVDIAVKGGKIAAIGQDLGDAKEVMDASGLVVSPGMVDAHTHISEPGRSHWEGYETGTRAAAKGGITTMIEMPLNQLPATVDRASIELKFDAAKGKLTIDAAQLGGLVSYNIDRLHELDEVGVVGFKCFVATCGDRGIDNDFRDVNDWQFFKGAQKLGELGQPVLVHCENALICDELGEEAKREGRVTAHDYVASRPVFTEVEAIRRVLYLAKVAGCRLHVCHVSSPEGVEEVTRARQEGQDVTCESCPHYFVLDTDQFEEIGTLAKCSPPIRDLENQKGMWEKLFNGEIDCLVSDHSPCPPEMKAGNIMKAWGGIAGLQSCMDVMFDEAVQKRGMSLPMFGKLMATNAADIFGLQQKGRIAPGKDADFVFIQPNSSYVLTNDDLEYRHKVSPYVGRTIGARITKTILRGDVIYDIEQGFPVAPKGQFILKHQQ
notes: full length; expressed in E. coli; tetrameric
With B2 the Km (purified protein [3]) was 5.8 ± 1.2 mM and the Vmax (purified protein [3]) was 246 ± 32 U/mg protein.
